# In the DeepSol protein solubility set:
# Experiment: soluble on expression in E. coli; label from the status in PepcDB or PDB records
row,Sequence,soluble on expression in E. coli
1,MAHHHHHHMIYKAYGSPENNSGNTHMYSMYAPPNAYVQGQGGSRTMYGYAGTGGHGSGHPFGYHANPSMGVTYEYNGGINVHHNGSAYRVGGGTNGRDRGGDVVSLRNLHGYDQQATSDYEVHDNQLKAPVVVTPATVVSTLGSARLFSKPPKPIVYGSRCVVRICDAFQEGRCAAGDRCHDIHVRPEYLAETRMEMSSWLFDRECEFRQTMEMDSEKTFSIFVADLKEVVEVPINSLVFTKGLYVDPATRAKRARGAGNHAHVHAMMQVPTSCGLYSTDPLQCKWERWCNQVHIDHRWMQVKKAEFDQWFIELQNRYFSLAPDDTFTVHDPQLKSSISLPKFSIAGFSRGLFQGSMKKLASVCLLFQRGKCTAGSCCNQIHVFPQYLSLAREFAAMEQSPDALPEEKQRLRREMELLRGPLMKQEKQETAAMESASLPNVVSSANEGTHSDAMDIKAAAEEDLASCGALFEHVQVDEDVEPVSHLVSANTSLTRRMNASAPDISLSVARHMNSDGSYSFNPYGSVTSLPDGSTSFNRFPGTRGSGQPMDGNGSVQYTPGSVQLLSTDTKGMRRLVALVSPESGNGAVELHRNGDDMGIGGNAGDGGTATVAHDRAPPFAAGHRSNGGYRAVAHPLGDEGGRYDSGTQGEQSCSLHPLDFDASWHFSPTPLLGFDASTTSTHRNGSIRDEDPAMHAHLRLTASNSSYIYPGSSTTSQQNLLSTPMHRGVTSNATTAARVRLAASAASSRTHAHRSATSLPDSSTTNPAMGGSVSSMPTARPTFVGEQLTGTR,not soluble
2,MAQLAKTAVAALSKKLVAPAAVARRTLATEASPEDYGYYPDPLEHATGREKKMLLARLAGDDRYEPKVYYRAEASTKQKPNLVPSHYDFRIIGCMCEQDSGHVNFMTIRKGDPKRCECGHWFKGVDADPESI,not soluble
3,MLINVNFNELLLELDSLSVYRNLLNDSVIKKLYELGDLIYKKEPGTDEFIKKYNEFFFELTSGSIQSLKEHIIELILFDENPYSRQSEKLPFENIDKVLIDAASKDLDRLHVISALTSRKFKDYALENICKSESEKRFIDSLPAWEFDGRSNQGKRKLSQNCQKMIDVLVSSNKWGECVKNLSDFYFTNGSGIFARYHAFVWEPSEKPSLRGVEFPDPIRLSDFIGYEQQRLEVIENTEKFVRGLPANNVLLYGDRGTGKSSTVKAIANEYREQGLRIIEIPRKYLVDFPAVLKLIKGRSCKFIIFIDDLAFEDSEESYTVLKSVLEGGVENRPDNVLIYATSNRRHLIKEKFSDRAGFKSDDPDDEIRAQDTMQEKLSLSERFGITVVFSSPDKKQFLQIVEGLVAKRGINIDKDTLQREAMKWELMYNGRSARTARQFVDWLEGSMKLKK,soluble
4,MSLCELSYLNAVVMLKAQRGGNSGLYFGSMTTFITSGGLEISPAGAHIVHAESPEGELLFVSSASQYGEGNAIRGGVPIIAPWFGGLLGLDPAHGWAKRSAWDVTEHDGQIHAEYGRDGLLLDIRANSTKNGFEITLRAYNDTDEARTVQLAFHPYFKVDDVEKIEVRGLDGVDILNRLNNEVETQDGPVTFDGEFDRIALGTPVVRIFDTDRIITIEGDGHDSTVVWNPGESRASTVADIGEGEWRDFVCVEPALLGADQKGVRVAPGQSVTVGMQVSVEKRAEGHHHHHH,soluble
5,MGERIIPKNMKPMNGMLLEHLARYYFSTPYASGRVLDIACGTGYGSVMVAKTRKTEVDQVLGVDFDADVIHYAKQNYYHPKVSFLVGDAMDPYLRNQIGTFDTILSFETIEHVKDDRLFIERMRQLLKKDGTLVLSTPFGQGRGKPSDEPFHYHQLTEEEFRSLFDSFSEKEVFYQRGVTIEPKRTNVHYAFGVAVCKLEHHHHHH,not soluble
6,MRILVLGVGNILLTDEAIGVRIVEALEQRYILPDYVEILDGGTAGMELLGDMANRDHLIIADAIVSKKNAPGTMMILRDEEVPALFTNKISPHQLGLADVLSALRFTGEFPKKLTLVGVIPESLEPHIGLTPTVEAMIEPALEQVLAALRESGVEAIPRSDS,soluble
7,MKKFVALILGCITICGLYGCSKNSSQIINKTFSLPAYNRIEIDSANDDIKIISGKHYRVRYVGQNKLKPTIKVKNGVLVIDSPKKSTIINSNIFGSKNIKQTLTIEMPKKELKYLSVDTSNGDVSVDYLEVQKGTIDTSNGNVNLKNLITKKDFEIDTSNGTVKVGKSNVEGYALSTSNGSIVVKGENKSDEFEKNTSAKNVLSIDTSNGNIYVNLEHHHHHH,not soluble
8,MTPLKRYQKDIAEHGFQRDEAQHQAVVALDKLYHDIVEFQSAPIPQLSKWQKLMGKKVEMPQPPKGLYFWGGVGRGKTYLMDAFFDALPTDRKMRVHFHRFMYRVHDELKRLGEVENPLSKVADLFKQEADIVCFDEFFVSDITDAMILATLLQEMFKRQMVLVATSNIEPQNLYRNGLQRARFLPAIDMILARCHVLNVDSGVDYRLRTLEQAEIYHYPLDEQASINLNTYYQQLTAERKSVAHKIDINHRQISVIEASDGVLHASFEQLCQTARSQNDYIELSRIYHTVLLADVRQMNRKIDDAARRFIALVDEFYERNVKLIISAEVEMDALYSEGQLEFEFKRCVSRLTEMQSHEYLAREHLALEHHHHHH,soluble
9,MKLCGKLANITTVDYGGIACHAGVDRRISLHNFTISLPESGNPMSATFDPDNLRASLLALNVIDPLSLDGQAYQRFYGLAGLGGENVVRSWLGRLDVDGYEIVGQVWLPESPVATLFLFHGFYDHMGLYRHVIEWALTQGFAVISCDLPGHGLSSGSRASINDFAEYQVVLQRLLLEAGSLGLPHPWHLCGQSTGGAIVIDHLLHQGAESPAQGEVILLAPLVRPRAWGWSRFSYRLLKPFVSGIARRFTENSNAPAFLPFLLADPLQPRRLPTAWVGALAQWIVRVESAPRSLRSPIIIQGDADMTVDWSHNLAVLKDKFSQPHILMLGHARHHLANETPELRARYFDFVKGRLG,not soluble
10,MSLDVPLAQTVVWETHVGDFSNDPAGGFPESHRGKYLAFTDDGTSLEGHPDFPTGLAYLKKLGVTAVQLMPIYDFGSVDETTCDRYNWGYDPINYNVPEGSYSTNPFDGTTRIREVKQMVQALHSAGIKVIMDVVYNHMFSTDNWFERTVPKYFLRRKPNGALANGSGCGCDMATERKMFRRFIVESVTFWAREYHMDGFRFDLMGLIDVDTMNAVRAALNEIPGRGRDILMYGEPWSAGASAPLPADTLLAGKQGLAQLDDRIGHFCDTTRDTIKGHVFYSDRPGYVNGGMHANAVAVREAVDAWRHSDRPEGVAGQVIQYVSAHDDLTLWDKLCASLAASSLGSAVAEGDEENTVDVPKTLHDADFSEQGLDAVGPEMAQALHDVLGANRLSAGIVLTSAGIPFMLSGEEFARTKYGNSDSYDSTKELNWLDWNRAWHMRDLIGFYAKLIALRKSDARWFDGNRKIVDTEGDELVFRVGDYLVAVNPSDRTGVVDVAAAAVEGDSGEMHRYWCCLGVSGRGGGVSTGGGDDDYLIMPAHTFAIWRLQEGHHHHHH,not soluble
11,MIELKGISQHFRGAGGTDVHALRDVDLSIDKGEIFGIIGRSGAGKSTLVRVINLLNRPTSGTVTVAGQSLTALNADGLRQARRKIGMIFQHFNLLSSRTVYDNVALPLELAGTPRERIREIVLPLLELVGLDAHKDRYPAQISGGQKQRVGIARALASQPDVLLSDEATSALDPETTRSILDLLRKINRELGLTIVLITHQMEVIKQVCDRVAVLDAGRVVELGRVIDVFLKPRHDVTRALIGEVISQELPPSVLARVESRLVAARERGGRDHLFRLAFTGAGVDQPVLAQAIRNYGLDFNILHGHIDEIQGQAFGSLAILASGESADIDNAMHFLREQGVVVEEINHVVLEHHHHHH,not soluble
12,MKNIIPQALLTMPILSTGLQAQEKQPTPNLVFIMADQYRGDAIGCIGKEPVKTPHLDKLASEGINFTNAISSYPVSSPARGMLMTGMYPIGSKVTGNCNSETAPYGVELSQNARCWSDVLKDQGYNMGYIGKWHLDAPYKPYVDTYNNRGKVAWNEWCPPERRHGFDHWIAYGTYDYHLKPMYWNTTAPRDSFYYVNQWGPEYEASKAIEYINGQKDQKQPFALVVSMNPPHTGYELVPDRYKEIYKDLDVEALCKGRPDIPAKGTEMGDYFRNNIRNYYACITGVDENVGRIIEALKQNNLFDNTIVVFTSDHGICMGAHENAGKDIFYEESMRIPMILSWPDQIKPRKSDPLMIAFADLYPTLLSMMGFSKEIPETVQTFDLSNEVLTGKNKKDLVQPYYFVKFDNHATGYRGLRTDRYTYAVHATDGKIDNVILFDRTNDPHEMNNIASQQLKLTHTFNRQLKTWLEKTNDPFAQYIKLKLEHHHHHH,soluble
13,MRMSKMARKDPTIEFCQLGLDTFETKYITMFGMLVSCSFDKPAFISFVFSDFTKNDIVQNYLYDRYLIDYENKLELNEGFKAIMYKNQFETFDSKLRKIFNNGLRDLQNGRDENLSQYGIVCKMNIKVKMYNGKLNAIVRECEPVPHSQISSIASPSQCEHLRLFYQRAFKRIGESAISRYFEEYRRFFPIHRNGSHLA,soluble
14,ISRLLAGQLDFRSAIRSVAAEVAHIIPHDHLDVCVLLEDGNYHTAYETGIETAWGDLAGAPVVNSPIRSLLWGEVDFLLADDAMTDPRFHFDGAFKRPIVEQSLRSRLHVPMKVQGAIIAALSCSSQEAGAYTMEDVERARIIADLLTPYFFALRAAEQAQR,not soluble
15,MAFRMSRDHADFVAHGGTEWDDGAFVNVKKIKIFHDWAGITLVQFDYIDGTGAIVSGLDHGTEPFQFDREHGRVPVEGARAEFWLRDDEYITIVTAFGGYCVRKIEFITNKRTFDFGGFN,soluble
16,GSPEFMELEIRPLFLVPDTNGFIDHLASLARLLESRKYILVVPLIVINELDGLAKGQETDHRAGGYARVVQEKARKSIEFLEQRFESRDSCLRALTSRGNELESIAFRSEDITGQLGNNDDLILSCCLHYCKDKAKDFMPASKEEPIRLLREVVLLTDDRNLRVKALTRNVPVRDIPAFLTWAQVG,soluble
17,LLELLLLTSELYPDPVLPALSLLPHTVRTAPAEASSLLEAGNADAVLVDARNDLSSGRGLCRLLSSTGRSIPVLAVVSEGGLVAVSADWGLDEILLLSTGPAEIDARLRLVVGRRGDLADQESLGKVSLGELVIDEGTYTARLRGRPLDLTYKEFELLKYLAQHAGRVFTRAQLLHEVWGYDFFGGTRTVDVHVRRLRAKLGPEHEALIGTVRNVGYKAVRPARGRPPAADPDDEDADPGRDGMQEPLVDPLRSQ,not soluble
18,MSLAQISKYKRVVLKLSGEALAGEKGFGINPVIIKSVAEQVAEVAKMDCEIAVIVGGGNIWRGKTGSDLGMDRGTADYMGMLATVMNALALQDSLEQLDCDTRVLTSIEMKQVAEPYIRRRAIRHLEKKRVVIFAAGIGNPYFSTDTTAALRAAEVEADVILMGKNNVDGVYSADPKVNKDAVKYEHLTHIQMLQEGLQVMDSTASSFCMDNNIPLTVFSIMEEGNIKRAVMGEKIGTLITKEGHHHHHH,soluble
19,MAEAVLRVARRQLSQRGGSGAPILLRQMFEPVSCTFTYLLGDRESREAVLIDPVLETAPRDAQLIKELGLRLLYAVNTHCHADHITGSGLLRSLLPGCQSVISRLSGAQADLHIEDGDSIRFGRFALETRASPGHTPGCVTFVLNDHSMAFTGDALLIRGCGRTDFQQGCAKTLYHSVHEKIFTLPGDCLIYPAHDYHGFTVSTVEEERTLNPRLTLSCEEFVKIMGNLNLPKPQQIDFAVPANMRCGVQTPTALEHHHHHH,soluble
20,MDQAQRFLRQHPEHADLRIWGLNAFDPSQGNLLLPRLEWRRCGGKATLRLTLFSESSLQHDAIQAKEFIATLVSIKPLPGLHLTTTREQHWPDKTGWTQLIELATKTIAEGELDKVVLARATDLHFASPVNAAAMMAASRRLNLNCYHFYMAFDGENAFLGSSPERLWRRRDKALRTEALAGTVANHPDDKQAQQLGEWLMADDKNQRENMLVVEDICQRLQADTQTLDVLPPQVLRLRKVQHLRRCIWTSLNKADDVICLHQLQPTAAVAGLPRDLARQFIARHEPFTREWYAGSAGYLSLQQSEFCVSLRSAKISGNVVRLYAGAGIVRGSDPEQEWQEIDNKAAGLRTLLQME,not soluble
